Source: publication PMC8065591, “SPECT Imaging of SST2-Expressing Tumors with ^99mTc-Based Somatostatin Receptor Antagonists: The Role of Tetraamine, HYNIC, and Spacers” (Pharmaceuticals, 2021)
Where a SMILES comes first, the peptide text is derived from it. Bridges are numbered along the chain shown (N, C = ends). [ ]: non-standard residue; d: D form. The star is where a group is joined. dPhe(4-NHCONH2) = NC(=O)Nc1ccc(C[C@@H](N)C(=O)O)cc1; Dihydroorotyl(S) = O=C1C[C@@H](C(=O)*)NC(=O)N1; Phe(4-Cl) = N[C@@H](Cc1ccc(Cl)cc1)C(=O)O; Phe(4-NH2) = Nc1ccc(C[C@H](N)C(=O)O)cc1; HYNIC = NNc1ccc(C(=O)*)cn1; Ahx = NCCCCCC(=O)O

Tests used:
[1] = type: physicochemical
Experimental: In general, all JR11-based radiotracers were more hydrophilic than the corresponding SS01-based radiotracers. […] [^99[…] was excluded from further studies. […] In a pre-lubricated Eppendorf tube, a pre-saturated mixture of 500 μL 1-octanol and 500 μL of phosphate-buffered saline (PBS) at pH 7.4 was added. An amount of 10 μL of 1 μM radiotracer solution was added to this mixture, followed by vortexing of the tube at room temperature for 15 min to reach equilibrium. Centrifugation for 15 min at 3000 rpm was performed for separation of the phases. Aliquots of 100 μL were removed from the octanol and from the PBS phase, and the activity measured in a γ-counter. The partition coefficient was calculated as the average log ratio value of the radioactivity in the organic fraction and PBS fraction.

HEK-SST2 tumors = system: HEK-SST2 tumors; set-up: species or system mice; conditions: mouse, in vivo
Experimental: The Veterinary Office (Department of Health) of the Cantonal Basel-Stadt approved the animal experiments (approval no. 30515) in accordance with the Swiss regulations for animal treatment. Female athymic nude-Foxn1nu/Foxn1+ mice (Envigo, The Netherlands), 4-6 weeks old, were injected subcutaneously with 10^7 HEK-SST2 cells in the right shoulder, freshly suspended in 100 μL sterile phosphate-buffered saline. The tumors were allowed to grow for 2-3 weeks. Mice bearing HEK-SST2 tumors were euthanized 1 or 4 h after intravenous injection of 4-6 MBq (200 pmol) of the ^99mTc-labeled conjugates and imaged supine, head first, using a SPECT/CT system dedicated to imaging small animals (NanoSPECT/CT^TM Bioscan Inc.). Topograms and helical CT scans of the whole mouse were first acquired using the following parameters: X-ray tube current: 177 μA, X-ray tube voltage 45 kVp, 90 s and 180 frames per rotation, pitch 1. The helical SPECT scan was then acquired from head to toe using multi-purpose pinhole collimators (APT1). The energy window width was 20%, centered symmetrically over the energy peak of ^99mTc at 140 keV. Twenty-four projections (200 s per projection) were used, allowing acquisition of at least 50 kilocounts/projection. […]

SST2 = conditions: cited from earlier work

Compound	Log D (pH = 7.4) [1]	further results
C[C@@H](O)[C@@H]1NC(=O)[C@H](CCCCN)NC(=O)[C@@H](Cc2ccc(NC(N)=O)cc2)NC(=O)[C@H](Cc2ccc(NC(=O)[C@@H]3CC(=O)NC(=O)N3)cc2)NC(=O)[C@H](NC(=O)[C@H](Cc2ccc(Cl)cc2)NC(=O)CCCCCNC(=O)c2ccc(NN)nc2)CSSC[C@@H](C(=O)N[C@H](Cc2ccc(O)cc2)C(N)=O)NC1=O [[^99mTc]Tc-HYNIC-Ahx-JR11, metal not drawn] ({HYNIC-Ahx}-[Phe(4-Cl)][dC][Phe(4-NH2)](Dihydroorotyl(S))[dPhe(4-NHCONH2)]KTC[dY]-NH2; disulfide 2-7)	−3.15 ± 0.06	
C[C@@H](O)[C@@H]1NC(=O)[C@H](CCCCN)NC(=O)[C@@H](Cc2c[nH]c3ccccc23)NC(=O)[C@H](Cc2ccc(O)cc2)NC(=O)[C@H](NC(=O)[C@H](Cc2ccc(Cl)cc2)NC(=O)CCCCCNC(=O)c2ccc(NN)nc2)CSSC[C@@H](C(=O)N[C@H](Cc2ccc(O)cc2)C(N)=O)NC1=O [[^99mTc]Tc-HYNIC-Ahx-SS01, metal not drawn]	−1.96 ± 0.06	
C[C@@H](O)[C@@H]1NC(=O)[C@H](CCCCN)NC(=O)[C@@H](Cc2ccc(NC(N)=O)cc2)NC(=O)[C@H](Cc2ccc(NC(=O)[C@@H]3CC(=O)NC(=O)N3)cc2)NC(=O)[C@H](NC(=O)[C@H](Cc2ccc(Cl)cc2)NC(=O)c2ccc(NN)nc2)CSSC[C@@H](C(=O)N[C@H](Cc2ccc(O)cc2)C(N)=O)NC1=O [[^99mTc]Tc-HYNIC-JR11, metal not drawn] ({HYNIC}-[Phe(4-Cl)][dC][Phe(4-NH2)](Dihydroorotyl(S))[dPhe(4-NHCONH2)]KTC[dY]-NH2; disulfide 2-7)	−2.88 ± 0.11	
C[C@@H](O)[C@@H]1NC(=O)[C@H](CCCCN)NC(=O)[C@@H](Cc2c[nH]c3ccccc23)NC(=O)[C@H](Cc2ccc(O)cc2)NC(=O)[C@H](NC(=O)[C@H](Cc2ccc(Cl)cc2)NC(=O)CCOCCOCCOCCOCCNC(=O)c2ccc(NN)nc2)CSSC[C@@H](C(=O)N[C@H](Cc2ccc(O)cc2)C(N)=O)NC1=O [[^99mTc]Tc-HYNIC-PEG4-SS01, metal not drawn]	−2.03 ± 0.13	
C[C@@H](O)[C@@H]1NC(=O)[C@H](CCCCN)NC(=O)[C@@H](Cc2c[nH]c3ccccc23)NC(=O)[C@H](Cc2ccc(O)cc2)NC(=O)[C@H](NC(=O)[C@H](Cc2ccc(Cl)cc2)NC(=O)c2ccc(NN)nc2)CSSC[C@@H](C(=O)N[C@H](Cc2ccc(O)cc2)C(N)=O)NC1=O [[^99mTc]Tc-HYNIC-SS01, metal not drawn]	−2.21 ± 0.07	
C[C@@H](O)[C@@H]1NC(=O)[C@H](CCCCN)NC(=O)[C@@H](Cc2c[nH]c3ccccc23)NC(=O)[C@H](Cc2ccc(O)cc2)NC(=O)[C@@H](NC(=O)[C@@H](Cc2ccccc2)NC(=O)c2ccc(NN)nc2)CSSC[C@@H](C(=O)N[C@H](CO)[C@@H](C)O)NC1=O [[^99mTc]Tc-HYNIC-TOC, metal not drawn, reference compound]		logD ([1]; pH 7.4): -2.77 ± 0.07
C[C@@H](O)[C@@H]1NC(=O)[C@H](CCCCN)NC(=O)[C@@H](Cc2c[nH]c3ccccc23)NC(=O)[C@H](Cc2ccc(O)cc2)NC(=O)[C@H](NC(=O)[C@H](Cc2ccc(Cl)cc2)NC(=O)CCNC(=O)c2ccc(NN)nc2)CSSC[C@@H](C(=O)N[C@H](Cc2ccc(O)cc2)C(N)=O)NC1=O [[^99mTc]Tc-HYNIC-β-Ala-SS01, metal not drawn]	−1.91 ± 0.19	washout from the tumor on SPECT/CT images (in words) (HEK-SST2 tumors): very fast washout from the tumor
Cpa-c(DCys-Aph(Hor)-DAph(Cbm)-Lys-Thr-Cys)-DTyr-NH2 [JR11]		affinity for SST2 (in words) (SST2): high affinity
